Measurements as given in the nanobody polyreactivity screen of Harvey et al. (2022).

experiment: yeast display, Sf9 membrane polyspecificity reagent, FACS + sequencing; frameworks hold sequencing errors
Method in brief: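 Sorting gates, low and high (top ~1%), were placed on anti-HA fluorescence to track expression and on streptavidin fluorescence to track reagent binding. A clone's polyreactivity label is taken from the gate it came out of. The reagent was 10% biotinylated, detergent-solubilized Sf9 membrane, applied for 1 hour at 4 °C to galactose-induced yeast display cells.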

Row | Sequence | polyreactivity (PSR sort gate)
1 | QVQLVESGGGLVQAGGSLRLSCAASGRIFYYYAMGWYRQAPGKERELVAAINRSGGSTYYADSVKGRFTISRDNAKNTVYLQKNSLKPEDTAVYYCASYDYWGQGSQVTVSS | high polyreactivity
2 | QVQLVESGGGLVQAGGSLRLSCAASGRIFYYYAMGWYRQAPGKERELVAAISGGGGSTYYADSVKGRFTISRDNAKNTVYLQMNSLKPEDTAVYYCAAEGAKDYTVSYDYWGQGTQVTVSS | high polyreactivity
3 | QVQLVESGGGLVQAGGSLRLSCAASGRIFYYYAMGWYRQAPGKERELVAAISQRGGRTYYADSVKGRFTISRDIAKNTVYLQMNSLIPEDTAVYYCNAYPVYGRYTHYGYGHWGQGTKVTVSS | high polyreactivity
4 | QVQLVESGGGLVQAGGSLRLSCAASGRIFYYYAMGWYRQAPGKERELVAGISSGSSTNYADSVKGRFTISRDNAKNTVYLQMNSLKPEDTAVYYCAAYPYFSVAANDDYWGQGTQVTVSS | low polyreactivity
5 | QVQLVESGGGLVQAGGSLRLSCAASGRIFYYYAMGWYRQAPGKERELVASINSVGTTTYADSVKGRVTISRDNAKNTVYLQMNSLKPEDTAVYYCARDTGSIYYDGYEYDYWGQGTQVTVSS | low polyreactivity
6 | QVQLVESGGGLVQAGGSLRLSCAASGRIFYYYAMGWYRQAPGKERELVATITTSGKTYYADSVKGRFTISRDNAKNTVYLQMNSLKPEDTAVYYCNAGWDLVYGYYPRRKNFDYWGQGTKVTVSS | high polyreactivity
7 | QVQLVESGGGLVQAGGSLRLSCAASGRIFYYYAMGWYRQAPRKERELVAAISWSDDSTYYADSVKGRFTISRDNAKNTVYLQMNSLKPEDTAVYYCAADSIHYQFDYWGQGTQVTVSS | low polyreactivity
8 | QVQLVESGGGLVQAGGSLRLSCAASGRIFYYYAMGWYRQAPVKERELVAAISQRGGRTYYADSVKVRFTISRDNAKNTVYLQMNSLKPEDTAVYYCNAYPVYGRYTHYGYGHWGQGTQVTVSS | high polyreactivity
9 | QVQLVESGGGLVQAGGSLRLSCAASGRIFYYYAMVWYRQAPGKERELVAAITRRGGSTYYADSVKGRFTISRDNAMNTVYLLMNSLKPEDTAVYYCAKPVRTGWLDGDYWGQGTQVTVSS | low polyreactivity
10 | QVQLVESGGGLVQAGGSLRLSCAASGRIFYYYGMGWYRQAPGKEREFVAAISLGGARTYYADSVKGRFTISRDNAKNTVYLQMNSLKPEDTAVYDCYARGIGRSTKWSSRDYWGQGTQVTVSS | high polyreactivity
11 | QVQLVESGGGLVQAGGSLRLSCAASGRIFYYYMAWYRHAPGKERELVAAITRGGGTYADSVKGRFTISRDNAKNTVYLQMNSLKPEDTAVYYCAAYPRGARRLDYWGQGTQVTVSS | high polyreactivity
12 | QVQLVESGGGLVQAGGSLRLSCAASGRIFYYYTMGWYRQAPGKERELVARINSSGSTNLRRLCEGALHNFTRQCEEYRLFTDEQPETGRYRVYYCNADTKRSSREYDYWGQGTQVTVSS | low polyreactivity
13 | QVQLVESGGGLVQAGGSLRLSCAASGRIGVYAMGWYRQAPGKERELVAAIRRSGGNTYYADSVKGRFTISRDNAKNTVYLQMNSLKPEDTAVYYCAAGRPYRFYPRYDYWGQGTQVTVSS | high polyreactivity
14 | QVQLVESGGGLVQAGGSLRLSCAASGRIIADNAMGWYRQAPGKERELVATISSGGSTSYADSVKGRFTISRDNAKNTVYLQMNSLKPDDTAVYYCATPYTGPSRPYDYWGQGTQVTVSS | low polyreactivity
15 | QVQLVESGGGLVQAGGSLRLSCAASGRIIAWNDMGWYRQAPGKERELVAAIRWSSGTTYYADSVKGRFTISRDNAKNTVYLQINSLKPEDTAVYYCAAGGHARTWYAYYYWGQGTQVTVSS | low polyreactivity
16 | QVQLVESGGGLVQAGGSLRLSCAASGRIIDIYAMGWYRQAPGKERELVAAITSGGSTYYADSVKGRFTISRDNAKNTVYLQMNSLKPEDTAVYYCAARLFADYWGQGTQVTVSS | low polyreactivity
17 | QVQLVESGGGLVQAGGSLRLSCAASGRIIFTNAMGWYRQARGKERELVASISRGGVRTYYADSVKGRFTISRDNAKNTVYLQMNSLKPEDTAVYYCDKGYHLVLPPLPQYDYWGQGTQVTVSS | low polyreactivity
18 | QVQLVESGGGLVQAGGSLRLSCAASGRIIGFNAMGWYRQAPGKERELVASIRTTGGSTRYADSVKGRFTISRDNAKNTVYLQMNSLIPEDTAVYYCAARWGKTLWQYNYWGQGTQVTVSS | high polyreactivity
19 | QVQLVESGGGLVQAGGSLRLSCAASGRIIGIKAMGWYRLAPGKEMELVATITSGGDTNYADSVKGRFTISRDNAKNTVYIQMNSLKPEDTAVYYCNAESYGLGIGYEYWGQGTQVTVSS | low polyreactivity
20 | QVQLVESGGGLVQAGGSLRLSCAASGRIIGLYTMGWYRQAPGKERELVARITSGDRTYYADSVKGRFTISRDNAKNTVYLQMNSLKPEDTAVYYCAAEFTYRYDYWGQGTQVTVSS | high polyreactivity
21 | QVQLVESGGGLVQAGGSLRLSCAASGRIIGRYVMGWYRQAPGKERELVAAITRGGSTNYADSVKGRFTISRDNAKNTVYLQMNSLKPEDTAVYYCARAYSTVNRYSMYYWGQGTQVTVSS | high polyreactivity
22 | QVQLVESGGGLVQAGGSLRLSCAASGRIIGSNTMGWYRQAPGKEREFVATISSSGGSTYYADSVKGRFTISRDNAKNTVYLQMNSLKPEDTSVYYCAAPWSSGSRGGYDYWGQGTQVTVSS | high polyreactivity

Row | Sequence | polyreactivity (PSR sort gate)
23 | QVQLVESGGGLVQAGGSLRLSCAASGRIIGTYAMGWYRQAPGKERELVAAITARTSSTYYADSVKGRFTISRDNAKNTVYLQMNSLKPEDTAVYYCARTGSYRPSFRYDYWGQGTQVTVSS | high polyreactivity
24 | QVQLVESGGGLVQAGGSLRLSCAASGRIIGWYAMGWYRQAPGKERELVAAISQDATRTYYADSVTGRFTISRDHAKNTVYLQMLRLKPEDTAVYNCNVVYRYAGWSYDSWGQGTQVTVSS | high polyreactivity
25 | QVQLVESGGGLVQAGGSLRLSCAASGRIIGYYAMGWYRQAPGKERELVAAITSGGRTNYADSVKGRFTISRDNAKNTVYLQMNSLKPEDTAVYYCAKEYPRYSSPYDYWGQGTQVTVSS | low polyreactivity
26 | QVQLVESGGGLVQAGGSLRLSCAASGRIIGYYAMGWYRQAPGKERELVAAITSSGSRTYYADSVKGRFTISRDNAKNTVYLQMNSLKPEDTAVYYCATTKVYYSSKSSYYYWGQGTQVTVSS | high polyreactivity
27 | QVQLVESGGGLVQAGGSLRLSCAASGRIIGYYTMGWYSQAPGKERELVAAITSGGRTYYADSVKGRFTISRDNAKNTVYLQMNSLKPEDTAVYYCAADWYYRSDYWGQGTQVTVSS | low polyreactivity
28 | QVQLVESGGGLVQAGGSLRLSCAASGRIIGYYVMGWYRQAPGKERELVAAISSRTGTTYYADSVKGRFTISRDYAKNTVYLQMNRLKPEDTAVYYCNARELTTYWSFDYHHSEYDYWGQGTQVTVSS | high polyreactivity
29 | QVQLVESGGGLVQAGGSLRLSCAASGRIIKFYAMGWNRQAPGKERELVAVIRSVTRTKYADSVKGRFTISRDNAKNTVYLQLNSLKPEDTAVYYCAAREVGKMDYWGQGTQVTVSS | low polyreactivity
30 | QVQLVESGGGLVQAGGSLRLSCAASGRIIKYYTMGWYRQAPGKERELVAAISRGGTTNYADSVKGRFTISRDNAKNTVYLQMNSLKPEDTAVYYCNAVGFYAANTFDYWGQGTQVTVSS | high polyreactivity
31 | QVQLVESGGGLVQAGGSLRLSCAASGRIIPAYDMGWYRQAPGKERELVAAISQGAGGSTYYADSVKGRFTISRDNAKNTVYLQMISLKPEDTAVYSCAREGESGVVDTYGHVYVYEYDYWGQGTQVTVSS | low polyreactivity
32 | QVQLVESGGGLVQAGGSLRLSCAASGRIIPSYAMGWYRQAPGKERELVAAISDSDGSTYYADSVKGRFTISRDNAKNTVYLQMNSLKPEDTAVYYCAAEGSYPAYDYWGQGTQVTVSS | low polyreactivity
33 | QVQLVESGGGLVQAGGSLRLSCAASGRIIRTYSMGRYRQAPGKERELVAVISRRGGRTYYADSVKGRFTFSRDNAKNTVYVQINSLKPEDTAVYYCNADYSGGGGGYWGQGTLVTVSS | high polyreactivity
34 | QVQLVESGGGLVQAGGSLRLSCAASGRIITAYAMGWYRQAPGKEREFVAAINVSGGSTYYADSVKGRFTISRDNAKNTVYLQMDSLKPEDSAVYYCNADYYYYDIYWWQMDYWGQGTQVTVSS | low polyreactivity
35 | QVQLVESGGGLVQAGGSLRLSCAASGRIITAYYAMGWSRQAPGKERELVASISSSGTSTYADSVKGRFTISRDNAKNTVYLQMNSLKPEDTAVYYCATRKLRTRRYDYGYWGQGTQVTVSS | low polyreactivity
36 | QVQLVESGGGLVQAGGSLRLSCAASGRIITGNAMGWYRQAPGKERELVATITRRGGSTYYADSVKGRFTISRDNAKNTVYLQMNSLKPEDTAVYYCAANRLFSYDKYGYWGQGTQVTVSS | high polyreactivity
37 | QVQLVESGGGLVQAGGSLRLSCAASGRIITKYTMGWYRQAPGKERELVAAISRSDRTNYADSVKGRFTISRDNAKNTVYLQMNSLKPEDTAVYYCAAQFTVLWYEYYYWGQGTQVTVSS | high polyreactivity
38 | QVQLVESGGGLVQAGGSLRLSCAASGRIIVHYAMGWYRQAPGKERELVAAISWSGGSTYYADSVKGRFTISRDIGNNTVYLQMNSLKPEDTAVYYCNALDPLYFRYDYWGQGTQVTVSS | low polyreactivity
39 | QVQLVESGGGLVQAGGSLRLSCAASGRIIYNNAMGWSRQAPGTERELVAAISIGGITYYADSVKGRFTISRDNAKNTVYLQMNSLKPEDTAVYYCAALNTGYRTRRLGRDYWGQGTQVTVSS | low polyreactivity
40 | QVQLVESGGGLVQAGGSLRLSCAASGRIIYRYAMGWYRQAPGKERELVATITWSTTSTYHADSVKGRFTISRDNAKNTVYLQMNSLKPEDTAVYYCAASIIPGFRRDPFGYWGQGTQVTVSS | low polyreactivity
41 | QVQLVESGGGLVQAGGSLRLSCAASGRIIYTNAMGWYRQAPGKERELVAAINRSGGITYYADSVKGRFTISRDNAKNTVYVQMNSLKPEDTAVYYCAKDSSWASYNHDYWGQGTQVTVSS | low polyreactivity
42 | QVQLVESGGGLVQAGGSLRLSCAASGRIIYVYAMGWYRQAPGKERELVAAISDSGGSTYYADSVKGRFTISRDNAKNTVYLQMNSLKPEDTAVYYCAAEGYYSDYWGQGTQVTVSS | high polyreactivity
43 | QVQLVESGGGLVQAGGSLRLSCAASGRIIYYAMGWYRQAPGKERELVAAITRNGGTYADSVKGRFTISRDNAKNTVYLQMHRLKPEDTAVYYCNADPDFGDDYWGQGTQVTVSS | low polyreactivity
